# Test results published in article PMC12416549 (2024).
# T1: TNFR1 (Homo sapiens, UniProt P19438)
# T1 chain: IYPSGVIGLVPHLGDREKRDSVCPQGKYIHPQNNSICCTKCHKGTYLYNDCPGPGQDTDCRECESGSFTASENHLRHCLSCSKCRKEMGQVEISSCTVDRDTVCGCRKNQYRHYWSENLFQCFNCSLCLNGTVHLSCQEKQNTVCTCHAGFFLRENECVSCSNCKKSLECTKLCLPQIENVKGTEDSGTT
# Target: T1, TNFR1
# Test: yeast display SC50
row,Binder,apparent Kd (screen) [nM]
1,E5G (designed binder) SMEEGVEKAAKEYEKKKKEAIEKHLEKLKAKDKEAAERFLKELEEAAKEYAKDEAKTMSEEEAKRRAKKYKEKVLLSELSEEEQKEIKEAEEKLVRTILKYVEEAAK,0.446
2,E61W (designed binder) SMEEEVEKAAKEYEKKKKEAIEKHLEKLKAKDKEAAERFLKELEEAAKEYAKDEAKTMSEWEAKRRAKKYKEKVLLSELSEEEQKEIKEAEEKLVRTILKYVEEAAK,1.86
3,E14G (designed binder) SMEEEVEKAAKEYGKKKKEAIEKHLEKLKAKDKEAAERFLKELEEAAKEYAKDEAKTMSEEEAKRRAKKYKEKVLLSELSEEEQKEIKEAEEKLVRTILKYVEEAAK,12.5
4,E86M (designed binder) SMEEEVEKAAKEYEKKKKEAIEKHLEKLKAKDKEAAERFLKELEEAAKEYAKDEAKTMSEEEAKRRAKKYKEKVLLSELSEEEQKMIKEAEEKLVRTILKYVEEAAK,0.869
5,A90C (designed binder) SMEEEVEKAAKEYEKKKKEAIEKHLEKLKAKDKEAAERFLKELEEAAKEYAKDEAKTMSEEEAKRRAKKYKEKVLLSELSEEEQKEIKECEEKLVRTILKYVEEAAK,0.593
6,K107S (designed binder) SMEEEVEKAAKEYEKKKKEAIEKHLEKLKAKDKEAAERFLKELEEAAKEYAKDEAKTMSEEEAKRRAKKYKEKVLLSELSEEEQKEIKEAEEKLVRTILKYVEEAAS,1.05
7,L76G (designed binder) SMEEEVEKAAKEYEKKKKEAIEKHLEKLKAKDKEAAERFLKELEEAAKEYAKDEAKTMSEEEAKRRAKKYKEKVLGSELSEEEQKEIKEAEEKLVRTILKYVEEAAK,11.4
8,R65Y (designed binder) SMEEEVEKAAKEYEKKKKEAIEKHLEKLKAKDKEAAERFLKELEEAAKEYAKDEAKTMSEEEAKYRAKKYKEKVLLSELSEEEQKEIKEAEEKLVRTILKYVEEAAK,11.4
9,K31N (designed binder) SMEEEVEKAAKEYEKKKKEAIEKHLEKLKANDKEAAERFLKELEEAAKEYAKDEAKTMSEEEAKRRAKKYKEKVLLSELSEEEQKEIKEAEEKLVRTILKYVEEAAK,0.79
10,E37D (designed binder) SMEEEVEKAAKEYEKKKKEAIEKHLEKLKAKDKEAADRFLKELEEAAKEYAKDEAKTMSEEEAKRRAKKYKEKVLLSELSEEEQKEIKEAEEKLVRTILKYVEEAAK,0.539
11,A30M (designed binder) SMEEEVEKAAKEYEKKKKEAIEKHLEKLKMKDKEAAERFLKELEEAAKEYAKDEAKTMSEEEAKRRAKKYKEKVLLSELSEEEQKEIKEAEEKLVRTILKYVEEAAK,0.593
12,E22Q (designed binder) SMEEEVEKAAKEYEKKKKEAIQKHLEKLKAKDKEAAERFLKELEEAAKEYAKDEAKTMSEEEAKRRAKKYKEKVLLSELSEEEQKEIKEAEEKLVRTILKYVEEAAK,0.718
13,A90T (designed binder) SMEEEVEKAAKEYEKKKKEAIEKHLEKLKAKDKEAAERFLKELEEAAKEYAKDEAKTMSEEEAKRRAKKYKEKVLLSELSEEEQKEIKETEEKLVRTILKYVEEAAK,0.593

# Continued, values first:
row,apparent Kd (screen) [nM],Binder
1,11.4,E54G (designed binder) SMEEEVEKAAKEYEKKKKEAIEKHLEKLKAKDKEAAERFLKELEEAAKEYAKDGAKTMSEEEAKRRAKKYKEKVLLSELSEEEQKEIKEAEEKLVRTILKYVEEAAK
2,0.79,D32N (designed binder) SMEEEVEKAAKEYEKKKKEAIEKHLEKLKAKNKEAAERFLKELEEAAKEYAKDEAKTMSEEEAKRRAKKYKEKVLLSELSEEEQKEIKEAEEKLVRTILKYVEEAAK
3,1.86,E3A (designed binder) SMAEEVEKAAKEYEKKKKEAIEKHLEKLKAKDKEAAERFLKELEEAAKEYAKDEAKTMSEEEAKRRAKKYKEKVLLSELSEEEQKEIKEAEEKLVRTILKYVEEAAK
4,0.79,K23L (designed binder) SMEEEVEKAAKEYEKKKKEAIELHLEKLKAKDKEAAERFLKELEEAAKEYAKDEAKTMSEEEAKRRAKKYKEKVLLSELSEEEQKEIKEAEEKLVRTILKYVEEAAK
5,7.78,K29P (designed binder) SMEEEVEKAAKEYEKKKKEAIEKHLEKLPAKDKEAAERFLKELEEAAKEYAKDEAKTMSEEEAKRRAKKYKEKVLLSELSEEEQKEIKEAEEKLVRTILKYVEEAAK
6,0.869,R65K (designed binder) SMEEEVEKAAKEYEKKKKEAIEKHLEKLKAKDKEAAERFLKELEEAAKEYAKDEAKTMSEEEAKKRAKKYKEKVLLSELSEEEQKEIKEAEEKLVRTILKYVEEAAK
7,22.2,A67C (designed binder) SMEEEVEKAAKEYEKKKKEAIEKHLEKLKAKDKEAAERFLKELEEAAKEYAKDEAKTMSEEEAKRRCKKYKEKVLLSELSEEEQKEIKEAEEKLVRTILKYVEEAAK
8,3,E89I (designed binder) SMEEEVEKAAKEYEKKKKEAIEKHLEKLKAKDKEAAERFLKELEEAAKEYAKDEAKTMSEEEAKRRAKKYKEKVLLSELSEEEQKEIKIAEEKLVRTILKYVEEAAK
9,0.49,Y101F (designed binder) SMEEEVEKAAKEYEKKKKEAIEKHLEKLKAKDKEAAERFLKELEEAAKEYAKDEAKTMSEEEAKRRAKKYKEKVLLSELSEEEQKEIKEAEEKLVRTILKFVEEAAK
10,0.539,E22T (designed binder) SMEEEVEKAAKEYEKKKKEAITKHLEKLKAKDKEAAERFLKELEEAAKEYAKDEAKTMSEEEAKRRAKKYKEKVLLSELSEEEQKEIKEAEEKLVRTILKYVEEAAK
11,0.49,K15H (designed binder) SMEEEVEKAAKEYEHKKKEAIEKHLEKLKAKDKEAAERFLKELEEAAKEYAKDEAKTMSEEEAKRRAKKYKEKVLLSELSEEEQKEIKEAEEKLVRTILKYVEEAAK
12,0.718,E37M (designed binder) SMEEEVEKAAKEYEKKKKEAIEKHLEKLKAKDKEAAMRFLKELEEAAKEYAKDEAKTMSEEEAKRRAKKYKEKVLLSELSEEEQKEIKEAEEKLVRTILKYVEEAAK
13,0.49,Y13S (designed binder) SMEEEVEKAAKESEKKKKEAIEKHLEKLKAKDKEAAERFLKELEEAAKEYAKDEAKTMSEEEAKRRAKKYKEKVLLSELSEEEQKEIKEAEEKLVRTILKYVEEAAK
